In PMC8465637, “Three ParA Dimers Cooperatively Assemble on Type Ia Partition Promoters” (Genes, 2021):
Changes are numbered by the printed parent chain.

Key:
ParA_F (SopA) [1] = molecular target: T1, ParA_F (SopA) (plasmid F, UniProt P62556 1-388); test: fluorescence titration; conditions: apparent Kd; EMSA: 30 mM HEPES-KOH pH 7.5, 150 mM KCl, 3 mM MgCl2, 1 mM DTT, 10% glycerol, 37 C; SPR: 20 mM Hepes-KOH pH 7.4, 100 mM KCl, 10 mM MgCl2, 1 mM DTT, 24 C; MST: …
T1 sequence: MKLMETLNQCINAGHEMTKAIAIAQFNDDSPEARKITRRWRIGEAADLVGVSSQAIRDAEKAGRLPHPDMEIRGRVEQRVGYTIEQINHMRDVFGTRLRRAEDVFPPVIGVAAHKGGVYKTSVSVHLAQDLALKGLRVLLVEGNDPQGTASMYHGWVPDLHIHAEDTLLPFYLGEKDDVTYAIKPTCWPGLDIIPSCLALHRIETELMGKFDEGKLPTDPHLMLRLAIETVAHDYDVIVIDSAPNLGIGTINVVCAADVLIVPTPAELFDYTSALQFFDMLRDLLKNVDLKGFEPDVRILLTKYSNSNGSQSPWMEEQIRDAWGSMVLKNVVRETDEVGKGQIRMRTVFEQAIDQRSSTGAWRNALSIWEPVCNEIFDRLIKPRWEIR

[2] = test system: ParB_F (SopB) (plasmid F); test: EMSA; conditions: apparent Kd; EMSA: 30 mM HEPES-KOH pH 7.5, 150 mM KCl, 3 mM MgCl2, 1 mM DTT, 10% glycerol, 37 C; SPR: 20 mM Hepes-KOH pH 7.4, 100 mM KCl, 10 mM MgCl2, 1 mM DTT, 24 C; MST: …
[3] = molecular target: the molecule itself; test: SEC; analytical gel filtration on a calibrated Superdex 75 10/300GL column; ParAF 4 µM in buffer E (50 mM bis-Tris pH 6, 400 mM NaCl, 0.5 mM DTT), with or without 1 mM ADP; one peak at 9.5 mL
ParA_F (SopA) [4] = molecular target: T1, ParA_F (SopA); test: EMSA; 3 uM ParA_F; EMSA: 30 mM HEPES-KOH pH 7.5, 150 mM KCl, 3 mM MgCl2, 1 mM DTT, 10% glycerol, 37 C; SPR: 20 mM Hepes-KOH pH 7.4, 100 mM KCl, 10 mM MgCl2, 1 mM DTT, 24 C; MST: 10 mM Tris-HCl pH 8, 150 mM NaCl, 50 mM CaCl2, 0.05% Tween 20, 20 mg/mL BSA, 25 C; conditions: protein: recombinant; tags: none (native); chain copies: 2; label: 5' Cy3
ParA_F (SopA) [5] = molecular target: T1, ParA_F (SopA); test: EMSA; equimolar ParB_F; estimate close to the probe concentration; no supershift; EMSA: 30 mM HEPES-KOH pH 7.5, 150 mM KCl, 3 mM MgCl2, 1 mM DTT, 10% glycerol, 37 C; SPR: 20 mM Hepes-KOH pH 7.4, 100 mM KCl, 10 mM MgCl2, 1 mM DTT, 24 C; MST: 10 mM Tris-HCl pH 8, 150 mM NaCl, 50 mM CaCl2, 0.05% Tween 20, 20 mg/mL BSA, 25 C; conditions: protein: recombinant; tags: none (native); chain copies: 2; label: 5' Cy3
ParA_F (SopA) [6] = molecular target: T1, ParA_F (SopA); test: fluorescence titration; EMSA: 30 mM HEPES-KOH pH 7.5, 150 mM KCl, 3 mM MgCl2, 1 mM DTT, 10% glycerol, 37 C; SPR: 20 mM Hepes-KOH pH 7.4, 100 mM KCl, 10 mM MgCl2, 1 mM DTT, 24 C; MST: 10 mM Tris-HCl pH 8, 150 mM NaCl, 50 mM CaCl2, 0.05% Tween 20, 20 mg/mL BSA, 25 C; conditions: protein: recombinant; tags: none (native); chain copies: 2; label: 5' Cy3
ParA_F (SopA) [7] = molecular target: T1, ParA_F (SopA); test: EMSA; 3 mM Mg2+, apparent Kd; EMSA: 30 mM HEPES-KOH pH 7.5, 150 mM KCl, 3 mM MgCl2, 1 mM DTT, 10% glycerol, 37 C; SPR: 20 mM Hepes-KOH pH 7.4, 100 mM KCl, 10 mM MgCl2, 1 mM DTT, 24 C; MST: 10 mM Tris-HCl pH 8, 150 mM NaCl, 50 mM CaCl2, 0.05% Tween 20, 20 mg/mL BSA, 25 C; conditions: protein: recombinant; tags: none (native); chain copies: 2; label: 5' Cy3
ParA_F (SopA) [8] = molecular target: T1, ParA_F (SopA); test: MST; no nucleotide; EMSA: 30 mM HEPES-KOH pH 7.5, 150 mM KCl, 3 mM MgCl2, 1 mM DTT, 10% glycerol, 37 C; SPR: 20 mM Hepes-KOH pH 7.4, 100 mM KCl, 10 mM MgCl2, 1 mM DTT, 24 C; MST: 10 mM Tris-HCl pH 8, 150 mM NaCl, 50 mM CaCl2, 0.05% Tween 20, 20 mg/mL BSA, 25 C; conditions: protein: recombinant; tags: none (native); chain copies: 2; label: 5' Cy3
ParA_F (SopA) [9] = molecular target: T1, ParA_F (SopA); test: SPR; 10 mM Mg2+, no nucleotide; 3 dimers per DNA; EMSA: 30 mM HEPES-KOH pH 7.5, 150 mM KCl, 3 mM MgCl2, 1 mM DTT, 10% glycerol, 37 C; SPR: 20 mM Hepes-KOH pH 7.4, 100 mM KCl, 10 mM MgCl2, 1 mM DTT, 24 C; MST: 10 mM Tris-HCl pH 8, 150 mM NaCl, 50 mM CaCl2, 0.05% Tween 20, 20 mg/mL BSA, 25 C; conditions: protein: recombinant; tags: none (native); chain copies: 2; label: biotin
ParA_F (SopA) [10] = molecular target: T1, ParA_F (SopA); test: SPR; EMSA: 30 mM HEPES-KOH pH 7.5, 150 mM KCl, 3 mM MgCl2, 1 mM DTT, 10% glycerol, 37 C; SPR: 20 mM Hepes-KOH pH 7.4, 100 mM KCl, 10 mM MgCl2, 1 mM DTT, 24 C; MST: 10 mM Tris-HCl pH 8, 150 mM NaCl, 50 mM CaCl2, 0.05% Tween 20, 20 mg/mL BSA, 25 C; conditions: protein: recombinant; tags: none (native); chain copies: 2; label: biotin
ParA_F (SopA) [11] = molecular target: T1, ParA_F (SopA); test: fluorescence titration; apparent Kd; EMSA: 30 mM HEPES-KOH pH 7.5, 150 mM KCl, 3 mM MgCl2, 1 mM DTT, 10% glycerol, 37 C; SPR: 20 mM Hepes-KOH pH 7.4, 100 mM KCl, 10 mM MgCl2, 1 mM DTT, 24 C; MST: 10 mM Tris-HCl pH 8, 150 mM NaCl, 50 mM CaCl2, 0.05% Tween 20, 20 mg/mL BSA, 25 C; conditions: protein: recombinant; tags: none (native); chain copies: 2; label: 5' Cy3
ParA_F (SopA) [12] = molecular target: T1, ParA_F (SopA); test: SPR; 1 uM ParA_F, no nucleotide; EMSA: 30 mM HEPES-KOH pH 7.5, 150 mM KCl, 3 mM MgCl2, 1 mM DTT, 10% glycerol, 37 C; SPR: 20 mM Hepes-KOH pH 7.4, 100 mM KCl, 10 mM MgCl2, 1 mM DTT, 24 C; MST: 10 mM Tris-HCl pH 8, 150 mM NaCl, 50 mM CaCl2, 0.05% Tween 20, 20 mg/mL BSA, 25 C; conditions: protein: recombinant; tags: none (native); chain copies: 2; label: biotin

75-bp probe with motifs #1 and #3
Kd (ParA_F (SopA) [1]): 1200 nM

120-bp Cy3 probe for ParB_F (non-specific)
Kd [2]: 1000 nM

B1: ParAF (ParA of the Escherichia coli plasmid F partition system ParABSF) (natural protein, UniProt P62556 1-388, looked up)
chain: T1 sequence
notes: native protein; also called SopA; source: E. coli strain DLT812 derivative carrying pDAG127 (ParaBAD::parAF), purified (heparin, Superdex 200, mono-Q)
stoichiometry N [3]: 2

B2: 120-bp IR2-2* (perfect IR in the middle) (dsDNA)
DNA 1: GTAGTGTTGCTCTTATTTTAAACAATCAGTAGGTTTTTTGATGACTTTGCGATTTTGTTGTTGTCAGTAAGTAAATTGCAAAGTTTAATAAAAAAACTCAGTACAATGATTAAAGGATGT
DNA 2: ACATCCTTTAATCATTGTACTGAGTTTTTTTATTAAACTTTGCAATTTACTTACTGACAACAACAAAATCGCAAAGTCATCAAAAAACCTACTGATTGTTTAAAATAAGAGCAACACTAC
binding result (ParA_F (SopA) [4]): no binding

B3: 120-bp IR2-2*4 (dsDNA)
DNA 1: B2 DNA 1 with T98G, G101A, T102A, A103G
DNA 2: B2 DNA 2 with T18C, A19T, C20T, A23C
binding result (ParA_F (SopA) [4]): no binding

B4: PparAB_F 120-bp (motifs 122'34) (dsDNA)
DNA 1: GTAGTGTTGCTCTTATTTTAAACAACTTTGCGGTTTTTTGATGACTTTGCGATTTTGTTGTTGCTTTGCAGTAAATTGCAAGATTTAATAAAAAAACGCAAAGCAATGATTAAAGGATGT
DNA 2: ACATCCTTTAATCATTGCTTTGCGTTTTTTTATTAAATCTTGCAATTTACTGCAAAGCAACAACAAAATCGCAAAGTCATCAAAAAACCGCAAAGTTGTTTAAAATAAGAGCAACACTAC
Kd (ParA_F (SopA) [5]): ~10 nM
Kd (ParA_F (SopA) [6]): 130 nM
Kd (ParA_F (SopA) [7]): 85 ± 20 nM
Kd (ParA_F (SopA) [8]): 140 ± 23 nM

B5: PparAB_F 136-bp (dsDNA)
DNA 1: ATCTCCTTTTGTAGTGTTGCTCTTATTTTAAACAACTTTGCGGTTTTTTGATGACTTTGCGATTTTGTTGTTGCTTTGCAGTAAATTGCAAGATTTAATAAAAAAACGCAAAGCAATGATTAAAGGATGTTCAGAA
DNA 2: TTCTGAACATCCTTTAATCATTGCTTTGCGTTTTTTTATTAAATCTTGCAATTTACTGCAAAGCAACAACAAAATCGCAAAGTCATCAAAAAACCGCAAAGTTGTTTAAAATAAGAGCAACACTACAAAAGGAGAT
binding result (ParA_F (SopA) [9]): binds

B6: PparAB_F 58-bp (IR3-4) (dsDNA)
DNA 1: TTGTTGTTGCTTTGCAGTAAATTGCAAGATTTAATAAAAAAACGCAAAGCAATGATTA
DNA 2: TAATCATTGCTTTGCGTTTTTTTATTAAATCTTGCAATTTACTGCAAAGCAACAACAA
binding result (ParA_F (SopA) [10]): no binding

B7: 80-bp IR3-4 probe (dsDNA)
DNA 1: GGTTTTTTGATGAGTCTCTGATTTTGTTGTTGCTTTGCAGTAAATTCAGAGATTTAATAAAAAAACGCAAAGCAATGATT
DNA 2: AATCATTGCTTTGCGTTTTTTTATTAAATCTCTGAATTTACTGCAAAGCAACAACAAAATCAGAGACTCATCAAAAAACC
Kd (ParA_F (SopA) [11]): 500 ± 325 nM

B8: nsDNA 136-bp (dsDNA)
DNA 1: CAGTGAATTGTAATACGACTCACTATAGGGCGAATTGGAGCTCCACCGCGGTGGCGGCCGCTCTAGAACTAGTGGATCCCCCGGGCTGCAGGAATTCGATATCAAGCTTATCGATACCGTCGACCTCGAGGGGGGG
DNA 2: CCCCCCCTCGAGGTCGACGGTATCGATAAGCTTGATATCGAATTCCTGCAGCCCGGGGGATCCACTAGTTCTAGAGCGGCCGCCACCGCGGTGGAGCTCCAATTCGCCCTATAGTGAGTCGTATTACAATTCACTG
binding result (ParA_F (SopA) [12]): no binding
